Values of other authors in paper PMC5218898.

Legend:
EnvZ (Escherichia coli) = EnvZ (Escherichia coli) (UniProt P0AEJ4)
RstB (Escherichia coli) = RstB (Escherichia coli) (UniProt P18392)

| Substance | Kd (EnvZ (Escherichia coli)) | Kd (RstB (Escherichia coli)) |
| --- | --- | --- |
| EnvZ (from UniProt P0AEJ4) | 300 nM |  |
| RstB (from UniProt P18392) |  | 300 nM |
